Experimental data: patent publication US20220403326A1, “MEDIA FORMULATIONS AND METHODS FOR PRODUCING PROGENITOR T CELLS” (priority 2019, published 2022)

Columns and labels:
Type in all cases: cell-based, human
CD34+ HSPCs [1] = test: TPO requirement with or without TNFα, 14-day culture; conditions: 14 days
Protocol: To assess the requirement for TPO in T lineage development, CD34+ HSPCs were analyzed by flow cytometry after 14 days in the presence or absence of TNFα, and further in the presence or absence of TPO.

CD34+ HSPCs [2] = test: Definitive screening design cytokine screen for proT cell differentiation and expansion; conditions: for effect on total live cells, CD7+ lymphocytes and CD7+CD5+ cells relative to the control condition: day 0-7 and day 7-14, control SCF, FLT3L, TPO, IL-7 at 20 ng/ml each, linear regression model
Protocol: For experiments 7 days or longer, HSPCs were seeded at 63-125 cells/mm^2 (equivalent to 2000-4000 cells/well of a 96-well plate) on DL4+VCAM-1-coated surfaces. Experiments shorter than 7 days (CFSE and qPCR) were seeded at 470-780 cells/mm^2 (equivalent to 15,000-25,000 cells/well of a 96-well plate) to provide enough cells for analysis. Cells were cultured in 100 μl/well (32 μl/well for 384-well plate) of Iscove's Modified Eagle Medium (IMDM) supplemented with 20% bovine serum albumin, insulin, and transferrin (BIT 9500) serum substitute (Stemcell Technologies), 1 μg/ml low-density lipoprotein (LDL; Stemcell Technologies), 60 μM ascorbic acid (Sigma), 24 μM 2-mercaptoethanol (Sigma), and 1% penicillin-streptomycin (P/S; Invitrogen). The cytokines used in control condition were SCF, FLT3L, TPO, and IL-7 (also known as the “4F cytokines”, all of which were obtained from R&D Systems), each at a concentration of 20 ng/ml or 100 ng/ml as indicated in the text. All other cytokines were purchased from R&D Systems and used in the combinations and concentrations indicated in the text. For certain experiments, the γ-secretase inhibitor (2S)-N-[(3,5-Difluorophenyl)acetyl]-L-alanyl-2-phenyl] glycine 1,1-dimethylethyl ester (DAPT) or dimethyl sulfoxide (DMSO) was added to media at the concentrations indicated in the text.
For screening experiments, a Definitive Screening Design (DSD)^7 was employed where each factor was tested at three levels (scaled to [−1,0,1]). The design included at least 2m+1 runs, where m is the number of factors, comprised of m fold-over pairs plus a center run (with all factors at level 0) and with orthogonal blocking of UCB donors.^8
Absolute cell numbers were acquired for each cell population of interest and, for initial experiments, a z-score was calculated relative to the control condition:
where SE(⋅) is the standard error. Control conditions were the cytokines used previously in the DL4+VCAM-1 assay as in Shukla et al.^6 Stepwise regression using the minimum Bayesian information criterion method was used to determine significant terms and, from this, a linear regression model of z-scores was constructed that included main and quadratic effects and two-factor interactions. This provided a better- or worse-than estimate for each factor compared to the control. The DSD layout and regression model were constructed using JMP 13 software (SAS). Follow up experiments measuring the dose response of top factors, the regression model was fit to the absolute cell count. Values were square root or log-transformed as necessary to ensure that residuals were approximately normal before fitting the regression model.
Test conditions were arranged using serial dilutions of each cytokine and laid out using an Eppendorf epMotion 5070 liquid handler in 384-well plates previously coated with DL4 and VCAM-1.
To identify factors that enhance proT cell differentiation and expansion, a two-part screen was conducted from day 0-7 and day 7-14 to separate the effects of screened molecules on HSPCs and differentiating proT cells (FIG. 1a). Screened molecules were tested at three doses each in combination using a definitive screening design (DSD) experiment and a linear regression model was fit to empirical data to estimate dose response.^7 The response to factors was measured against a control condition that contained SCF, FLT3L, TPO and IL-7 cytokines as in Shukla et al.^6 but using a lower concentration of 20 ng/ml each.
Medium gray indicates the effect of the control condition; dark gray to black indicates an effect greater than the control condition; and light gray to white indicates an effect lesser than the control condition. The size of each circle indicates the significance of the effect in the linear regression model. Combinations of factors indicate two-factor interactions (e.g., TPO*IL-1β) or quadratic effects (e.g., IL-21*IL-21) in the regression model. […] IL-3 and TNFα were selected for further investigation. […]

HSPCs = test: CFSE proliferation assay of HSPCs on DL4+VCAM-1
Protocol: To track the number of cell divisions, cells were stained with 2.5 μM CellTrace™ CFSE (ThermoFisher) in PBS and incubated at 37° C. for 8 minutes. CFSE was quenched by adding 5 times the volume of IMDM+BIT and incubating at 37° C. for 5 minutes. Cells were then resuspended in fresh media and seeded on DL4+VCAM-1 for culture. For analysis, cells were collected and stained for CD34, CD7, and CD5 surface markers as described above and analyzed using flow cytometry. Proliferation was modelled using FlowJo™ software and further analysis was performed with R.
To track the number of cell divisions in response to each of IL-3 and TNFα, the HSPCs were first stained with carboxyfluorescein succinimidyl ester (CFSE). IL-3 or TNFα were added on day 0 and the number of divisions of each cell was analyzed on days 2, 3, 4 and 5.

CD34+ HSPCs [3] = test: IL-3, TNFα or IL-3+TNFα culture on DL4+VCAM-1, flow cytometry on day 7 and day 14; conditions: day 7 and day 14 (FIGS. 5d and e)
Protocol: For experiments 7 days or longer, HSPCs were seeded at 63-125 cells/mm^2 (equivalent to 2000-4000 cells/well of a 96-well plate) on DL4+VCAM-1-coated surfaces. Experiments shorter than 7 days (CFSE and qPCR) were seeded at 470-780 cells/mm^2 (equivalent to 15,000-25,000 cells/well of a 96-well plate) to provide enough cells for analysis. Cells were cultured in 100 μl/well (32 μl/well for 384-well plate) of Iscove's Modified Eagle Medium (IMDM) supplemented with 20% bovine serum albumin, insulin, and transferrin (BIT 9500) serum substitute (Stemcell Technologies), 1 μg/ml low-density lipoprotein (LDL; Stemcell Technologies), 60 μM ascorbic acid (Sigma), 24 μM 2-mercaptoethanol (Sigma), and 1% penicillin-streptomycin (P/S; Invitrogen). The cytokines used in control condition were SCF, FLT3L, TPO, and IL-7 (also known as the “4F cytokines”, all of which were obtained from R&D Systems), each at a concentration of 20 ng/ml or 100 ng/ml as indicated in the text. All other cytokines were purchased from R&D Systems and used in the combinations and concentrations indicated in the text. For certain experiments, the γ-secretase inhibitor (2S)-N-[(3,5-Difluorophenyl)acetyl]-L-alanyl-2-phenyl] glycine 1,1-dimethylethyl ester (DAPT) or dimethyl sulfoxide (DMSO) was added to media at the concentrations indicated in the text. […]

## TPO: cytokine thrombopoietin, one of the 4F cytokines
CD34+ HSPCs [1]; TNFα present
  CD7+ lymphoid cell development after removal of TPO: not detrimental
CD34+ HSPCs [1]; absence of TNFα
  number of CD7+ cells after removal of TPO: decreased significantly
CD34+ HSPCs [1]; with or without TNFα
  number of CD14/33+ myeloid cells after removal of TPO: decreased the number of CD14/33+ myeloid cells

## SCF: cytokine stem cell factor, one of the 4F cytokines
CD34+ HSPCs [2]
  effect on total live cells, CD7+ lymphocytes and CD7+CD5+ cells relative to the control condition: string positive effects

B1: IL-7: cytokine interleukin 7, one of the 4F cytokines (protein, UniProt P13232 26-177, looked up)
Interleukin-7: DCDIEGKDGKQYESVLMVSIDQLLDSMKEIGSNCLNNEFNFFKRHICDANKEGMFLFRAARKLRQFLKMNSTGDFDLHLLKVSEGTTILLNCTGQVKGRKPAALGEAQPTKSLEENKSLKEQKKLNDLCFLKRLLQEIKTCWNKILMGTKEH
CD34+ HSPCs [2]
  effect on total live cells, CD7+ lymphocytes and CD7+CD5+ cells relative to the control condition: string positive effects

B2: IL-3: cytokine; protein that in humans is encoded by the IL3 gene (accession P08700; SEQ ID NO: 7) (protein, listed as Homo sapiens)
chain: MSRLPVLLLLQLLVRPGLQAPMTQTTPLKTSWVNCSNMIDEIITHLKQPPLPLLDFNNLNGEDQDILMENNLRRPNLEAFNRAVKSLQNASAIESILKNLLPCLPLATAAPTRHPIHIKDGDWNEFRRKLTFYLKTLENAQAQQTTLSLAIF
HSPCs; CFSE, days 2-5
  average number of divisions vs control: more divisions than the control group
  variance in the number of divisions vs control: significantly larger variance
HSPCs; by day 5
  CD7+ frequency vs control: lower CD7+frequency than the control
HSPCs; cytokine added on day 0, days 2-5
  cell fraction affected (CD7− vs CD7+ cells), number of divisions: predominantly affecting the CD7− fraction
HSPCs; days 2-5
  upregulation of CD7: upregulated CD7 comparably to the control
CD34+ HSPCs [2]
  effect on total live cells, CD7+ lymphocytes and CD7+CD5+ cells relative to the control condition: string positive effects
CD34+ HSPCs [2]; range of concentrations, n=2 UCB donors
  dose response of live cells, CD7+ lymphocytes and CD7+CD5+ proT cells: curved response in at least one population
CD34+ HSPCs [3]
  number of CD14/33+ myeloid lineage cells, IL-3 compared with IL-3+TNFα conditions: similar
